Measurements: publication PMC7295778
Blank lines part the entries; values can stand above or below the substance they belong to.

Experiments:
[1] = molecular target: KirBac3.1 A133C-T136C (Cys-less background C262S, C71V, C119V) crosslinked with MTS-1-MTS (UniProt D9N164); assay: native MS; 200 mM ammonium acetate pH 8.0, 0.5% C8E4; Q-ToF and QExactive; collision-induced dissociation in the gas phase on the Q-ToF
[2] = molecular target: KirBac3.1 A133C-T136C (Cys-less background C262S, C71V, C119V) crosslinked with MTS-1-MTS (UniProt D9N164); assay: cross-linking; purified cysteine-pair mutants at 0.03-4 mg/ml in 20 mM TRIS pH 8.0, 150 mM KCl, 0.02% DDM; MTS-1-MTS 0.5 mM, dibromobimane 2.5 mM or CuSO4 1 mM, room temperature, 30 min; read by SDS-PAGE
[3] = molecular target: KirBac3.1 A133C-T136C (Cys-less background C262S, C71V, C119V) crosslinked with dibromobimane (UniProt D9N164); assay: native MS; 200 mM ammonium acetate pH 8.0, 0.5% C8E4; Q-ToF and QExactive; collision-induced dissociation in the gas phase on the Q-ToF
[4] = molecular target: KirBac3.1 A133C-T136C (Cys-less background C262S, C71V, C119V) crosslinked with dibromobimane (UniProt D9N164); assay: cross-linking; purified cysteine-pair mutants at 0.03-4 mg/ml in 20 mM TRIS pH 8.0, 150 mM KCl, 0.02% DDM; MTS-1-MTS 0.5 mM, dibromobimane 2.5 mM or CuSO4 1 mM, room temperature, 30 min; read by SDS-PAGE
[5] = molecular target: KirBac3.1 A133C-T136C (Cys-less background C262S, C71V, C119V), disulfide-linked (UniProt D9N164); assay: native MS; 200 mM ammonium acetate pH 8.0, 0.5% C8E4; Q-ToF and QExactive; collision-induced dissociation in the gas phase on the Q-ToF
[6] = molecular target: KirBac3.1 A133C-T136C (Cys-less background C262S, C71V, C119V), disulfide-linked (UniProt D9N164); assay: cross-linking; purified cysteine-pair mutants at 0.03-4 mg/ml in 20 mM TRIS pH 8.0, 150 mM KCl, 0.02% DDM; MTS-1-MTS 0.5 mM, dibromobimane 2.5 mM or CuSO4 1 mM, room temperature, 30 min; read by SDS-PAGE
[7] = molecular target: KirBac3.1 S129C-F135C (Cys-less background C262S, C71V, C119V) crosslinked with MTS-1-MTS (UniProt D9N164); assay: native MS; 200 mM ammonium acetate pH 8.0, 0.5% C8E4; Q-ToF and QExactive; collision-induced dissociation in the gas phase on the Q-ToF
[8] = molecular target: KirBac3.1 S129C-F135C (Cys-less background C262S, C71V, C119V) crosslinked with MTS-1-MTS (UniProt D9N164); assay: cross-linking; purified cysteine-pair mutants at 0.03-4 mg/ml in 20 mM TRIS pH 8.0, 150 mM KCl, 0.02% DDM; MTS-1-MTS 0.5 mM, dibromobimane 2.5 mM or CuSO4 1 mM, room temperature, 30 min; read by SDS-PAGE
[9] = molecular target: KirBac3.1 S129C-F135C (Cys-less background C262S, C71V, C119V) crosslinked with dibromobimane (UniProt D9N164); assay: native MS; 200 mM ammonium acetate pH 8.0, 0.5% C8E4; Q-ToF and QExactive; collision-induced dissociation in the gas phase on the Q-ToF
[10] = molecular target: KirBac3.1 S129C-F135C (Cys-less background C262S, C71V, C119V) crosslinked with dibromobimane (UniProt D9N164); assay: cross-linking; purified cysteine-pair mutants at 0.03-4 mg/ml in 20 mM TRIS pH 8.0, 150 mM KCl, 0.02% DDM; MTS-1-MTS 0.5 mM, dibromobimane 2.5 mM or CuSO4 1 mM, room temperature, 30 min; read by SDS-PAGE
[11] = molecular target: KirBac3.1 S129C-F135C (Cys-less background C262S, C71V, C119V), disulfide-linked (UniProt D9N164); assay: native MS; 200 mM ammonium acetate pH 8.0, 0.5% C8E4; Q-ToF and QExactive; collision-induced dissociation in the gas phase on the Q-ToF
[12] = molecular target: KirBac3.1 S129C-F135C (Cys-less background C262S, C71V, C119V), disulfide-linked (UniProt D9N164); assay: cross-linking; purified cysteine-pair mutants at 0.03-4 mg/ml in 20 mM TRIS pH 8.0, 150 mM KCl, 0.02% DDM; MTS-1-MTS 0.5 mM, dibromobimane 2.5 mM or CuSO4 1 mM, room temperature, 30 min; read by SDS-PAGE

Substance: KirBac3.1 A133C-T136C (Cys-less background C262S, C71V, C119V) crosslinked with MTS-1-MTS (from UniProt D9N164 1-295) (natural protein)
stoichiometry N [1]: 4
stoichiometry N [2]: 4

Substance: KirBac3.1 A133C-T136C (Cys-less background C262S, C71V, C119V), disulfide-linked (from UniProt D9N164 1-295) (natural protein)
stoichiometry N [5]: 4
stoichiometry N [6]: 4

Substance: KirBac3.1 S129C-F135C (Cys-less background C262S, C71V, C119V) crosslinked with MTS-1-MTS (from UniProt D9N164 1-295) (natural protein)
stoichiometry N [7]: 4
stoichiometry N [8]: 4

Now from value to substance:

stoichiometry N [3]: 4
stoichiometry N [4]: 4
Substance: KirBac3.1 A133C-T136C (Cys-less background C262S, C71V, C119V) crosslinked with dibromobimane (from UniProt D9N164 1-295) (natural protein)

stoichiometry N [9]: 4
stoichiometry N [10]: 4
Substance: KirBac3.1 S129C-F135C (Cys-less background C262S, C71V, C119V) crosslinked with dibromobimane (from UniProt D9N164 1-295) (natural protein)

stoichiometry N [11]: 4
stoichiometry N [12]: 4
Substance: KirBac3.1 S129C-F135C (Cys-less background C262S, C71V, C119V), disulfide-linked (from UniProt D9N164 1-295) (natural protein)
